From US20180021429A1, “ANTICANCER AGENTS OR ANTIMETASTATIC AGENTS USING FSTL1 AND COMBINATION DRUG THEREOF” (PHARMA FOODS INTERNATIONAL CO., LTD., priority 2015, published 2018)
Entries after “also recorded” stand apart in the source; their conditions may differ.

B1: #6-55: chicken-mouse chimeric anti-FSTL1 antibody clone; variable regions SEQ ID NO: 783 (light), 785 (heavy) (antibody, V domains shown)
VH: AVTLDESGGGLQTPGGALSLVCKGSGFTFTSVTMQWVRQAPGKGLEWVASVCSGSSTYYAPAVKGRATISRDNGQSTVRLQLSNLRPEDTGTYYCAKIAGRARWSCTSAAYNIDAWGHGTEVIVSS
VL: ASTQPSSVSAIPGETVKITCSGGGNNYGWYQQRSPGSAPVTVIYYNDNRPSNIPSRFSGSTSGSTSTLTITGVQADDEAIYYCGSWDSNTDSGIFGAGTTLTVL
modifications: mouse constant regions
B2: #13: chicken-mouse chimeric anti-FSTL1 antibody clone; variable regions SEQ ID NO: 815 (light), 817 (heavy) (antibody, V domains shown)
VH: AVTLDESGGGLQTPGGGLSLVCKASGFTFSSVTMQWVRQAPGKGLEWVASICSGSSTYYGPAVKGRATISRDNGQNTVRLQLNNLRAEDTATYYCAKIVGRGRWSCTSAAYNIDAWGHGTEVIVSS
VL: ASTQPSSVSANPGETVKITCSGGGNNYGWYQQKSPGSAPVTVIYNNNNRPSNIPSRFSGSKSGSTNTLTITGVQAEDEAVYYCGSYDSSSDSGIFGAGTTLTVL
modifications: mouse constant regions
B3: #33: chicken-mouse chimeric anti-FSTL1 antibody clone; variable regions SEQ ID NO: 823 (light), 825 (heavy) (antibody, V domains shown)
VH: AVTLDESGGGLQTPGGGLSLVCKASGFTFSSFNMNWVRQAPGKGLEYVAEISGTGSSTYYGSAVKGRATISRDNGQSTVRLQLNNLRAEDTATYFCARGDGAYSIDAWGHGTEVIVSS
VL: ASTQPSSVSANPGETVEITCSGDSSYYGWFQQKSPGSAPVTVIYDNTNRPSDIPSRFSGSKSGSTATLTITGVRAEDEAVYYCGGYDSSTYDGIFGAGTTLTVL
modifications: mouse constant regions

Test system: induction of MSCs, cancer-associated MSCs, and M-MDSCs by FSTL1
Test: Inhibitory activity against induction of MSC, cancer-associated MSC and MDSC by FSTL1 (Examples 13-15)
Assay type: cell-based, mouse
Method: Mouse bone marrow cells prepared in the same way as in Example 4 were supplemented with 20 ng/mL (final concentration) of FSTL1 and 10 μg/mL of the anti-FSTL1 antibody (#6-55, #7-34, #8-1, or #8-4), an anti-PD-L1 antibody reported to have an immunosuppression-mitigating effect, or a control antibody anti-DNP antibody and cultured under stimulation. 8 days thereafter, the number of cells was counted while the cells were stained with a PE-Cy5-labeled anti-CD45 antibody, a PE-labeled anti-ALCAM antibody, a FITC-labeled anti-CD271 antibody (Abcam plc, Cat. No. AB62122), a FITC-labeled anti-CD11b antibody (BD Pharmingen/Becton, Dickinson and Company, Cat. No. 553310), and a PE-Cy5-labeled anti-Gr1 antibody (eBioscience, Cat. No. 15-5931) in order to detect MSCs (CD45-negative cells), cancer-associated MSCs (CD45-negative, ALCAM-positive, and CD271-positive cells) which are MSCs increasing in number in association with cancer metastasis, and monocytic myeloid-derived suppressor cells (M-MDSCs: CD11b-positive, Gr1-positive, and ALCAM-positive cells) increasing in number together with cancer-associated MSCs, and the contents of the cells mentioned above were analyzed by flow cytometry using FACScan to calculate the percentage and number of MSCs per culture (FIG. 8). […] PD-L1 is expressed in MSC and presumably influences the induction of MSCs.
The antibody clone (#6-55, #7, #10, #13, or […]) was evaluated for its activity by the same testing method as in Example 13. #6-55 was set as a positive control for activity. […] Mouse bone marrow cells were supplemented with FSTL1 and the predetermined concentration of each antibody and cultured for 8 days. 5×10^4 cells/well were separated from each culture system and evaluated for the ability to differentiate into adipocytes using an adipocyte differentiation reagent included in “Mesenchymal Stem Cell Functional Identification Kit (R&D Systems, Inc., Cat. No. SC010)”. For the evaluation method, the cells were supplemented with the adipocyte differentiation reagent and cultured for 8 days. Then, adipocytes per culture system were counted under a microscope for evaluation. In the graph, none is depicted in the leftmost bar, and the control antibody is depicted in the second bar from the left followed by the anti-FSLT1 antibody clones. […]
Mouse bone marrow cells (bone marrow cells prepared in the same way as in Example 4) were supplemented with 20 ng/mL (final concentration) of FSTL1 and 20.0, 10.0, 5.0, or 2.5 μg/ml (final concentration) of the rat anti-FSTL1 antibody or #6-55. […] The cells were cultured for 8 days, and the inhibitory activity of each antibody against the induction of MSCs, cancer-associated MSCs, and M-MDSCs by FSTL1 was evaluated in the same way as in Example 13 (FIG. 10A). […]

[1] = Example 14, FIG. 9A/39A, #6-55 as positive control

| Molecule | dose dependence (Example 15, FIG. 10A/40A, 2.5-20.0 μg/ml) | inhibitory activity against the induction of MSCs, cancer-associated MSCs, and M-MDSCs by FSTL1 (Example 15, FIG. 10A/40A, FSTL1 20 ng/mL, antibody 20.0, 10.0, 5.0, 2.5 μg/ml, 8 days) | inhibitory activity against the induction of MSCs, cancer-associated MSCs, and M-MDSCs by FSTL1 [1] |
| --- | --- | --- | --- |
| B1 | No dose-dependent effect was confirmed; also recorded: dose dependence was not confirmed | slightly superior; also recorded: at the same level |  |
| B2 |  |  | inhibitory activity equivalent to or higher than that of the positive control (#6-55); also recorded: inhibitory activity equivalent to or higher than that of the positive control (16-55) |
| B3 |  |  | inhibitory activity equivalent to or higher than that of the positive control (#6-55); also recorded: inhibitory activity equivalent to or higher than that of the positive control (16-55) |
